Data set [1] deals with the molecule itself. Nature of the data set: SEC; gel filtration of affinity-purified MBP-TorsinA; self-association, elution in the void volume.
Data set [2] concerns the molecule itself. The experiment in a line: negative-stain electron microscopy; purified TorsinA variants without liposomes, diluted in ATP-containing buffer (HEPES/NaOH pH 8.0, NaCl, 10 mM MgCl2, ATP), 2% uranyl acetate stain; filament formation (self-polymerisation); MBP tag uncleaved or cleaved with 3C protease.

B1: MBP-TorsinA (human TorsinA residues 51–332, N-terminally MBP-tagged) (domain or fragment, UniProt O14656 51-332, looked up)
chain: GQKRSLSREALQKDLDDNLFGQHLAKKIILNAVFGFINNPKPKKPLTLSLHGWTGTGKNFVSKIIAENIYEGGLNSDYVHLFVATLHFPHASNITLYKDQLQLWIRGNVSACARSIFIFDEMDKMHAGLIDAIKPFLDYYDLVDGVSYQKAMFIFLSNAGAERITDVALDFWRSGKQREDIKLKDIEHALSVSVFNNKNSGFWHSSLIDRNLIDYFVPFLPLEYKHLKMCIRVEMQSRGYEIDEDIVSRVAEEMTFFPKEERVFSDKGCKTVFTKLDYYYDD
notes: TorsinA, human, residues 51-332; MBP tag is cleavable by human rhinovirus 3C protease; uncleaved in this form; Forms helical polymers of no fixed size; also called MBP-tagged TorsinA; wild-type; source: E. coli LOBSTR(DE3) RIL, purified (amylose resin); not shown: MBP, N-terminal, kept
In the case of B1, in data set [1], the binding result is listed as “binds”.

B2: TorsinA K174E (domain or fragment, human, UniProt O14656 51-332, looked up)
chain: GQKRSLSREALQKDLDDNLFGQHLAKKIILNAVFGFINNPKPKKPLTLSLHGWTGTGKNFVSKIIAENIYEGGLNSDYVHLFVATLHFPHASNITLYKDQLQLWIRGNVSACARSIFIFDEMDEMHAGLIDAIKPFLDYYDLVDGVSYQKAMFIFLSNAGAERITDVALDFWRSGKQREDIKLKDIEHALSVSVFNNKNSGFWHSSLIDRNLIDYFVPFLPLEYKHLKMCIRVEMQSRGYEIDEDIVSRVAEEMTFFPKEERVFSDKGCKTVFTKLDYYYDD
notes: TorsinA, human, residues 51-332; source: E. coli LOBSTR(DE3) RIL, purified (amylose resin)
B2: the binding result in data set [2] is “binds”.

B3: TorsinA K174A (domain or fragment, human, UniProt O14656 51-332, looked up)
chain: GQKRSLSREALQKDLDDNLFGQHLAKKIILNAVFGFINNPKPKKPLTLSLHGWTGTGKNFVSKIIAENIYEGGLNSDYVHLFVATLHFPHASNITLYKDQLQLWIRGNVSACARSIFIFDEMDAMHAGLIDAIKPFLDYYDLVDGVSYQKAMFIFLSNAGAERITDVALDFWRSGKQREDIKLKDIEHALSVSVFNNKNSGFWHSSLIDRNLIDYFVPFLPLEYKHLKMCIRVEMQSRGYEIDEDIVSRVAEEMTFFPKEERVFSDKGCKTVFTKLDYYYDD
notes: as for B2
Consider B3, for which the binding result in data set [2] is “binds”.

B4: TorsinA H140N (domain or fragment, human, UniProt O14656 51-332, looked up)
chain: GQKRSLSREALQKDLDDNLFGQHLAKKIILNAVFGFINNPKPKKPLTLSLHGWTGTGKNFVSKIIAENIYEGGLNSDYVHLFVATLHFPNASNITLYKDQLQLWIRGNVSACARSIFIFDEMDKMHAGLIDAIKPFLDYYDLVDGVSYQKAMFIFLSNAGAERITDVALDFWRSGKQREDIKLKDIEHALSVSVFNNKNSGFWHSSLIDRNLIDYFVPFLPLEYKHLKMCIRVEMQSRGYEIDEDIVSRVAEEMTFFPKEERVFSDKGCKTVFTKLDYYYDD
notes: as for B2
Turning to B4, the binding result in data set [2] is “binds”.

B5: TorsinA (human, residues 51–332), MBP cleaved with 3C protease (domain or fragment, UniProt O14656 51-332, looked up)
chain: GQKRSLSREALQKDLDDNLFGQHLAKKIILNAVFGFINNPKPKKPLTLSLHGWTGTGKNFVSKIIAENIYEGGLNSDYVHLFVATLHFPHASNITLYKDQLQLWIRGNVSACARSIFIFDEMDKMHAGLIDAIKPFLDYYDLVDGVSYQKAMFIFLSNAGAERITDVALDFWRSGKQREDIKLKDIEHALSVSVFNNKNSGFWHSSLIDRNLIDYFVPFLPLEYKHLKMCIRVEMQSRGYEIDEDIVSRVAEEMTFFPKEERVFSDKGCKTVFTKLDYYYDD
notes: TorsinA, human, residues 51-332; Helical polymer, 8.5 subunits per turn; nucleotide modeled as ATP; also called TorsinA filaments; TorsinA polymers; source: E. coli LOBSTR(DE3) RIL, purified (amylose resin), MBP cleaved with 3C protease during dialysis; not shown: MBP, N-terminal, cleaved
As for B5, the binding result in data set [2] is on record as “binds”.

Values taken from article PMC6646356, “The AAA + ATPase TorsinA polymerizes into hollow helical tubes with 8.5 subunits per turn” (Nature Communications, 2019).
